{"source": "paper PMC2719695", "about": "“Structures of native human thymidine phosphorylase and in complex with 5-iodouracil” (Biochemical and Biophysical Research Communications, 2009)", "proteins": {"B1": {"name": "Human thymidine phosphorylase (enzyme)", "chain": "APPAPGDFSGEGSQGLPDPSPEPKQLPELIRMKRDGGRLSEADIRGFVAAVVNGSAQGAQIGAMLMAIRLRGMDLEETSVLTQALAQSGQQLEWPEAWRQQLVDKHSTGGVGDKVSLVLAPALAACGCKVPMISGRGLGHTGGTLDKLESIPGFNVIQSPEQMQVLLDQAGCCIVGQSEQLVPADGILYAARDVTATVDSLPLITASILSKKLVEGLSALVVDVKFGGAAVFPNQEQARELAKTLVGVGASLGLRVAAALTAMDKPLGRCVGHALEVEEALLCMDGAGPPDLRDLVTTLGGALLWLSGHAGTQAQGAARVAAALDDGSALGRFERMLAAQGVDPGLARALCSGSPAERRQLLPRAREQEELLAPADGTVELVRALPLALVLHELGAGRSRAGEPLRLGVGAELLVDVGQRLRRGTPWLRVHRDGPALSGPQSRALQEALVLSDRAPFAAPSPFAELVLPPQQ", "notes": "Human thymidine phosphorylase (hTP, EC 2.4.2.4), cDNA clone from the Mammalian Gene Collection; residues 32-480 are seen in the crystals; Homodimer; the His tag is surmised from the Ni2+ column; Native crystal: residues 34-479 in all four copies (32, 33 and 480 in some chains); complex with 5-iodouracil: residues 35-480 in both chains; also called hTP; TP; source: E. coli …"}}, "biological_target": "the molecule itself", "experiment": "crystal structure; native hTP without ligand, space group P2(1), 0.1 M Na-acetate pH 5.2, 25% PEG 4000, 0.1 M ammonium acetate; 3.0 Å; four chains in the asymmetric unit", "data": [{"protein": "B1", "values": [{"measurement": "stoichiometry N", "value": 2}]}]}
